From US20260242478A1 (published 2026)
Where no end group is shown, it is not given here.

B1: Phage-2067 (peptide)
peptide: PVKWCIPSWMCSVD
notes: tested as crude clonal phage supernatant
B2: Phage-2078 (peptide-180 library clone, SEQ ID NO: 2394) (peptide)
peptide: IEKWCIPEWMCEYT
notes: Tested as clonal phage supernatant; not shown: pIII filament protein of the bacteriophage to which the peptide is fused for display
B3: Phage-2070 (peptide)
peptide: FEMWCTPSWMCDGF
notes: as for B1
B4: Phage-2071 (peptide)
peptide: IGPWCIPPWMCDHR
notes: as for B1
B5: Phage-2080 (peptide-180 library clone, SEQ ID NO: 2396) (peptide)
peptide: WDNWCTPLWMCQGF
notes: as for B2
B6: Phage-2060 (peptide)
peptide: EHIWCKPDWMCSGF
notes: as for B1
B7: Phage-2064 (peptide)
peptide: YLHSCTPAWMCTGF
notes: as for B1
B8: Phage-2083 (peptide-180 library clone, SEQ ID NO: 2399) (peptide)
peptide: WSNWCTPRWVCKTI
notes: as for B2
B9: Phage-2076 (peptide-180 library clone, SEQ ID NO: 2392) (peptide)
peptide: ADKWCIPEWMCEMN
notes: as for B2
B10: Phage-2084 (peptide-180 library clone, SEQ ID NO: 2400) (peptide)
peptide: SEHWCVPSWMCYGF
notes: as for B2
B11: Phage-2077 (peptide-180 library clone, SEQ ID NO: 2393) (peptide)
peptide: AEKLCIPPWMCMLS
notes: as for B2
B12: Phage-2066 (peptide)
peptide: VSIMCKPMWMCSGT
notes: as for B1
B13: Phage-2068 (peptide)
peptide: SEKWCIPDWMCQVW
notes: as for B1
B14: Phage-2072 (peptide-180 library clone, SEQ ID NO: 2388) (peptide)
peptide: QGNWCKPAWMCSGF
modifications: cysteine pairing not given here; also: fused to phage pIII, pIII sequence and linker not given here
notes: as for B2
B15: Phage-2074 (peptide-180 library clone, SEQ ID NO: 2390) (peptide)
peptide: VGNWCKPAWMCEMM
notes: as for B2
B16: Phage-2061 (peptide)
peptide: EMKWCIPAWMCQSH
notes: as for B1
B17: Phage-2082 (peptide-180 library clone, SEQ ID NO: 2398) (peptide)
peptide: PEKLCIPDWMCHWD
notes: as for B2
B18: Phage-2086 (peptide-180 library clone, SEQ ID NO: 2402) (peptide)
peptide: VHQMCQPWWMCWET
notes: as for B2
B19: Phage-2065 (peptide)
peptide: AAKMCVPWWMCEVM
notes: as for B1
B20: Phage-2062 (peptide)
peptide: EGKWCTPIWMCQGF
notes: as for B1
B21: Phage-2058 (peptide)
peptide: AWKSCIPSWMCEVQ
notes: as for B1
B22: Phage-2085 (peptide-180 library clone, SEQ ID NO: 2401) (peptide)
peptide: ESKWCTPPWMCMTD
notes: as for B2
B23: Phage-2069 (peptide)
peptide: YDHWCTPMWMCHGM
notes: as for B1
B24: Phage-2063 (peptide)
peptide: PIKLCTPSWMCIGF
notes: as for B1
B25: Phage-2057 (peptide)
peptide: VEKWCTPPWMCSLF
notes: as for B1
B26: Phage-2081 (peptide-180 library clone, SEQ ID NO: 2397) (peptide)
peptide: QVNWCIPPWMCAGL
modifications: cysteine pairing not given here; also: fused to phage pIII, pIII sequence and linker not given here
notes: as for B2
B27: Phage-2079 (peptide-180 library clone, SEQ ID NO: 2395) (peptide)
peptide: DWRLCIPEWMCERL
notes: as for B2
B28: Phage-2073 (peptide-180 library clone, SEQ ID NO: 2389) (peptide)
peptide: VAKMCIPSWMCAEQ
modifications: cysteine pairing not given here; also: fused to phage pIII, pIII sequence and linker not given here
notes: as for B2
B29: Phage-2075 (peptide-180 library clone, SEQ ID NO: 2391) (peptide)
peptide: ADKWCTPTWMCQWL
notes: as for B2
B30: Phage-2059 (peptide)
peptide: DTMRCVPEWMCTGF
notes: as for B1

Tests used:
[1] = molecular target: T1, Anti-PSMA Fab (SEQ ID NOs: 19, 20); test: phage ELISA; biotinylated PSMA Fab on neutravidin plate, bound phage detected with anti-M13-HRP;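 further: crude clonal phage supernatants added, without a wash, to wells pretreated with PSMA antigen in blocking buffer or with blocking buffer only, then briefly incubated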
T1 construct: Biotinylated PSMA Fab captured on neutravidin coated plates in the phage ELISA; also called 006 PSMA Fab
Procedure: (§1) Clonal phage were harvested as crude supernatants and screened via standard ELISAs. […] Prior to the addition of clonal phage. wells were incubated with blocking buffer and PSMA antigen or blocking buffer alone. Without washing or aspirating, clonal phage supernatants were then added to the wells and incubated for a short time. Wells were then washed followed by detection of bound phage using a horse radish conjugated anti-M13 antibody.

[2] = molecular target: T1, Anti-PSMA Fab (SEQ ID NOs: 19, 20); test: phage ELISA on captured PSMA Fab, wells pre-incubated with the competitor PSMA antigen
Procedure: as §1

[3] = molecular target: T2, Anti-PSMA Fab (SEQ ID NOs: 19, 20); test: phage binding ELISA; PSMA Fab on plate pre-incubated with PSMA antigen as competitor, anti-M13 HRP detection;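 further: crude clonal phage supernatants added without washing to wells preincubated with PSMA in blocking buffer, compared with wells receiving blocking buffer only, then bound phage detected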
T2 construct: In the phage ELISA the PSMA Fab was biotinylated and captured on neutravidin coated plates; also called 006 PSMA Fab
Procedure: as §1

[4] = molecular target: T2, Anti-PSMA Fab (SEQ ID NOs: 19, 20); test: phage binding ELISA; biotinylated PSMA Fab on neutravidin plate, clonal phage supernatant, anti-M13 HRP detection;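 further: wells were preincubated with blocking buffer either containing PSMA antigen or without it before crude phage supernatant was added, briefly incubated, then washed prior to detection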
Procedure: as §1

[5] = molecular target: T3, Anti-PSMA Fab (SEQ ID NOs: 19, 20); test: phage binding ELISA; Fab-coated wells pre-incubated with PSMA antigen as competitor, anti-M13 HRP detection
T3 construct: Biotinylated and captured on neutravidin coated plates in the phage ELISA; also called 006 PSMA Fab
Procedure: as §1

[6] = molecular target: T3, Anti-PSMA Fab (SEQ ID NOs: 19, 20); test: phage binding ELISA; biotinylated PSMA Fab on neutravidin plates, clonal phage supernatant, anti-M13 HRP detection
Procedure: as §1

Binder | Anti-PSMA Fab signal (phage binding ELISA) [1] | Anti-PSMA Fab signal in the presence of PSMA (phage binding ELISA) [2] | Anti-PSMA Fab signal in the presence of PSMA [3] | Anti-PSMA Fab (SEQ ID NOs: 19, 20) signal [4] | further results
B1 | 1.76 | 0.0738 |  |  | 
B2 |  |  | 0.0826 | 1.75 | 
B3 | 1.76 | 0.0932 |  |  | 
B4 | 1.76 | 0.0893 |  |  | 
B5 |  |  | 0.0794 | 1.75 | 
B6 | 1.77 | 0.0871 |  |  | 
B7 | 1.77 | 0.0668 |  |  | 
B8 |  |  | 0.0752 | 1.75 | 
B9 |  |  | 0.0844 | 1.76 | 
WLNWCTPEWMCNGF (tested as clonal phage supernatant) [Phage-2056] |  |  |  |  | Anti-PSMA Fab signal in the presence of PSMA [5]: 0.147; Anti-PSMA Fab signal [6]: 1.77
B10 |  |  | 0.0957 | 1.75 | 
B11 |  |  | 0.101 | 1.76 | 
B12 | 1.77 | 0.072 |  |  | 
B13 | 1.76 | 0.0929 |  |  | 
VVHWCIPEWMCERI (tested as clonal phage supernatant) [Phage-2053] |  |  |  |  | Anti-PSMA Fab signal in the presence of PSMA [5]: 0.098; Anti-PSMA Fab signal [6]: 1.78
B14 |  |  | 0.0983 | 1.76 | 
B15 |  |  | 0.0681 | 1.76 | 
B16 | 1.77 | 0.0858 |  |  | 

Binder | Anti-PSMA Fab signal (phage binding ELISA) [1] | Anti-PSMA Fab signal in the presence of PSMA (phage binding ELISA) [2] | Anti-PSMA Fab signal in the presence of PSMA [3] | Anti-PSMA Fab (SEQ ID NOs: 19, 20) signal [4] | further results
B17 |  |  | 0.0951 | 1.75 | 
FPQWCIPIWMCEHT (tested as clonal phage supernatant) [Phage-2052] |  |  |  |  | Anti-PSMA Fab signal in the presence of PSMA [5]: 0.065; Anti-PSMA Fab signal [6]: 1.78
B18 |  |  | 0.0749 | 1.75 | 
B19 | 1.77 | 0.0753 |  |  | 
B20 | 1.77 | 0.143 |  |  | 
B21 | 1.77 | 0.0942 |  |  | 
B22 |  |  | 0.0945 | 1.75 | 
B23 | 1.76 | 0.0688 |  |  | 
B24 | 1.77 | 0.107 |  |  | 
B25 | 1.77 | 0.1 |  |  | 
B26 |  |  | 0.0898 | 1.75 | 
B27 |  |  | 0.0875 | 1.75 | 
B28 |  |  | 0.0548 | 1.76 | 
VDKWCIPQWMCDDQ (tested as clonal phage supernatant) [Phage-2054] |  |  |  |  | Anti-PSMA Fab signal in the presence of PSMA [5]: 0.116; Anti-PSMA Fab signal [6]: 1.77
B29 |  |  | 0.0745 | 1.76 | 
APKLCIPNWMCVSM (tested as clonal phage supernatant) [Phage-2055] |  |  |  |  | Anti-PSMA Fab signal in the presence of PSMA [5]: 0.0746; Anti-PSMA Fab signal [6]: 1.77
B30 | 1.77 | 0.066 |  |  | 
